B1: HDV Ribozyme (parent)
chain: GGCCGGCAUGGUCCCAGCCUCCUCGCUGGCGCCGGCUGGGCAACAUUCCGAGGGGACCGUCCCCUCGGUAAUGGCGAAUGGGACCCA

Variants of: B1
Test: self-cleavage, relative activity (ratio to wild type); higher = more cleavage; co-transcriptional

Q: Which self-cleavage does the source give for GGCCGGCAUGGUCACAGCCUCCUCACUGGCGCCGGCUGGGCAACAUUCCGAGGGGACCGUCCCCUCGGUAAUGGCGAAUGGGACCCA here?
A: Its self-cleavage is 0.141.

Q: Which self-cleavage does the source give for GGCCGGCAUGGUCACAGCCUCCUCGCUGGCGCGGGCUGGGCAACAUUCCGAGGGGACCGUCCCCUCGGUAAUGGCGAAUGGGACCCA here?
A: The self-cleavage was 0.213.

Q: For GGCCGGCAUGGUCACAGCCUCCUCGCUGGCGCAGGCUGGGCAACAUUCCGAGGGGACCGUCCCCUCGGUAAUGGCGAAUGGGACCCA, which self-cleavage is on record?
A: Its self-cleavage is 0.0959.

Q: With GGCCGGCAUGGUCACAGCCUCCUCGCUGGCGCUGGCUGGGCAACAUUCCGAGGGGACCGUCCCCUCGGUAAUGGCGAAUGGGACCCA as the variant, how does the self-cleavage read?
A: Its self-cleavage is 0.587.

Q: For GGCCGGCAUGGUCACAGCCUCCUCGCUGGCGCCGGCUGGGCAACAUUCCGAGGGGACCGUCCCCUCGGUAAUAGCGAAUGGGACCCA, which self-cleavage is on record?
A: Its self-cleavage is 0.383.

Q: For GGCCGGCAUGGUCACAGCCUCCUCGCUGGCGCCGGCUGGGCAACAUUCCGAGGGGACCGUCCCCUCGGUAAUUGCGAAUGGGACCCA, which self-cleavage is on record?
A: The self-cleavage was 0.13.

Q: For GGCCGGCAUGGUCACAGCCUCCUCGCUGGCGCCGGCUGGGCAAGAUUCCGAGGGGACCGUCCCCUCGGUAAUGGCGAAUGGGACCCA, which self-cleavage is on record?
A: Its self-cleavage is 0.346.

Q: For GGCCGGCAUGGUCACAGCCUCCUCGCUGGCGCCGGCUGGGCAAUAUUCCGAGGGGACCGUCCCCUCGGUAAUGGCGAAUGGGACCCA, which self-cleavage is on record?
A: The self-cleavage was 0.166.

Q: For GGCCGGCAUGGUCACAACCUCCUCGCUGGCGCCGGCUGGGCAACAUUCCGAGGGGACCGUCCCCUCGGUAAUGGCGAAUGGGACCCA, which self-cleavage is on record?
A: The self-cleavage was 0.

Q: Which self-cleavage does the source give for GGCCGGCAUGGUCACAGCCUCCUCGCUAGCGCCGGCUGGGCAACAUUCCGAGGGGACCGUCCCCUCGGUAAUGGCGAAUGGGACCCA here?
A: Its self-cleavage is 0.141.

Q: For GGCCGGCAUGGUCACAGCCUCCUCGCUUGCGCCGGCUGGGCAACAUUCCGAGGGGACCGUCCCCUCGGUAAUGGCGAAUGGGACCCA, which self-cleavage is on record?
A: Its self-cleavage is 0.0733.

Q: Which self-cleavage does the source give for GGCCGGCAUGGUCACAGCCUCCUCGCUGGCGCCGGCUGGGCAACAUUCCGAGGCGACCGUCCCCUCGGUAAUGGCGAAUGGGACCCA here?
A: The self-cleavage was 0.536.

Q: For GGCCGGCAUGGUCACAGCCUCCUCGCUGUCGCCGGCUGGGCAACAUUCCGAGGGGACCGUCCCCUCGGUAAUGGCGAAUGGGACCCA, which self-cleavage is on record?
A: The self-cleavage was 0.0966.

Q: For GGCCGGCAUGGUCACAGCCUCCUCGCUGGCGCCGGCUGGGCAACAUUCCGAGGGGACCGUCCCCUCGGUAAUGGCCAAUGGGACCCA, which self-cleavage is on record?
A: The self-cleavage was 0.969.

Q: With GGCCGGCAUGGUCACAGCCUCCUCGCUGGCGCCGGCUGGGCAACAUUCCGAGGGGACCGUCCCCUCGGUAAUGGCAAAUGGGACCCA as the variant, how does the self-cleavage read?
A: Its self-cleavage is 0.718.

Q: For GGCCGGCAUGGUCACAGCCUCCUCGCUGGCGCCGGCUGUGCAACAUUCCGAGGGGACCGUCCCCUCGGUAAUGGCGAAUGGGACCCA, which self-cleavage is on record?
A: Its self-cleavage is 0.222.

Q: Which self-cleavage does the source give for GGCCGGCAUGGUCACAGCCUCCUCGCUGGCGCCGGCUGAGCAACAUUCCGAGGGGACCGUCCCCUCGGUAAUGGCGAAUGGGACCCA here?
A: Its self-cleavage is 0.177.

Q: With GGCCGGCAUGGUCACAGCCUCCUCGCUGGCGCCGGCUGGGUAACAUUCCGAGGGGACCGUCCCCUCGGUAAUGGCGAAUGGGACCCA as the variant, how does the self-cleavage read?
A: The self-cleavage was 0.539.

Q: For GGCCGGCAUGGUCACAGCCUCCUCGCUGGCGCCGGCUGGGCAACAUUCCGAGGGGACCGUCCUCUCGGUAAUGGCGAAUGGGACCCA, which self-cleavage is on record?
A: The self-cleavage was 0.731.

Q: Which self-cleavage does the source give for GGCCGGCAUGGUCACAGCCUCCUCGCUGGCGCCGGCUGGGCAACAUUCCGAGGGGACCGUCCACUCGGUAAUGGCGAAUGGGACCCA here?
A: The self-cleavage was 0.755.

Q: For GGCCGGCAUGGUCACAGCCUCCUCGCUGGCGCCGGCUGGGCAACAUUUCGAGGGGACCGUCCCCUCGGUAAUGGCGAAUGGGACCCA, which self-cleavage is on record?
A: The self-cleavage was 0.791.

Q: With GGCCGGCAUGGUCACAGCCUCCUCGCUGGCGCCGCCUGGGCAACAUUCCGAGGGGACCGUCCCCUCGGUAAUGGCGAAUGGGACCCA as the variant, how does the self-cleavage read?
A: Its self-cleavage is 0.0536.

Q: For GGCCGGCAUGGUCACAGCCUCCUCGCUGGCGCCGUCUGGGCAACAUUCCGAGGGGACCGUCCCCUCGGUAAUGGCGAAUGGGACCCA, which self-cleavage is on record?
A: The self-cleavage was 0.232.

Q: For GGCCGGCAUGGUCACAGCCUCCUCGCUGGCGCCGACUGGGCAACAUUCCGAGGGGACCGUCCCCUCGGUAAUGGCGAAUGGGACCCA, which self-cleavage is on record?
A: The self-cleavage was 0.0426.

Q: Which self-cleavage does the source give for GGCCGGCAUGGUCACAGCCUGCUCGCUGGCGCCGGCUGGGCAACAUUCCGAGGGGACCGUCCCCUCGGUAAUGGCGAAUGGGACCCA here?
A: The self-cleavage was 0.141.

Q: For GGCCGGCAUGGUCACAGCCUCCUCGCUGGCGCCGGCUGGGCAACAUUCCGAGGGGACCGUCCCCUCGGUAAUGGCGAAUGGGACCAA, which self-cleavage is on record?
A: The self-cleavage was 0.886.

Q: For GGCCGGCAUGGUCACAGCCUCCUCGAUGGCGCCGGCUGGGCAACAUUCCGAGGGGACCGUCCCCUCGGUAAUGGCGAAUGGGACCCA, which self-cleavage is on record?
A: The self-cleavage was 0.966.

Q: With GGCCGGCAUGGUCACAGCCUCCUCGGUGGCGCCGGCUGGGCAACAUUCCGAGGGGACCGUCCCCUCGGUAAUGGCGAAUGGGACCCA as the variant, how does the self-cleavage read?
A: The self-cleavage was 0.831.

Q: Which self-cleavage does the source give for GGCCGGCAUGGUCACAGCCUCUUCGCUGGCGCCGGCUGGGCAACAUUCCGAGGGGACCGUCCCCUCGGUAAUGGCGAAUGGGACCCA here?
A: The self-cleavage was 0.181.

Q: Which self-cleavage does the source give for GGCCGGCAUGGUCACAGCCUCCUCGCUGGCGCCGGCUGGGCAACAUUCCGAGGGGACCGUCCCCUCGGUAAUGGCGAAUGGGAGCCA here?
A: The self-cleavage was 0.623.

Q: With GGCCGGCAUGGUCACAGCCUCCUCGCUGGCGCCGGCUGGGCAACAUUCCUAGGGGACCGUCCCCUCGGUAAUGGCGAAUGGGACCCA as the variant, how does the self-cleavage read?
A: The self-cleavage was 0.467.

Q: Which self-cleavage does the source give for GGCCGGCAUGGUCACAGCCUCCUCGCUGGCGCCGGCUGGGCAACAUUCCGAGGGGACCGUCCCCUCGGUAAUGGAGAAUGGGACCCA here?
A: Its self-cleavage is 0.208.

From the RNAGym collection of RNA variant scans (doi:10.7554/elife.80360)
